Results taken from patent US20210309732A1 (ELIXIRON IMMUNOTHERAPEUTICS HONG KONG, published 2021).
Residue numbers refer to the chain shown, from its start. Values belong to the binder of their own block, whether it stands above or below them.

Target: T1, recombinant human GM-CSF (human, UniProt P04141 18-144)
T1 construct: also called rhGM-CSF; CSF2
Experiment: ELISA on coated rhGM-CSF, UBA relative to 1D2
Source text: Some of the residues in the CDRs are essential for epitope binding affinity and/or specificity. A number of computational methods were developed to detect these functional residues, generally known as ‘specificity-determining resides’ (SDRs). […] Based on the analysis, 7 amino acid residues in VH and 3 amino acid residues in VL were selected as the SDRs. The residues are labeled X₁ to X₁₀ for the ease of reference. The SDRs on VH are: Heavy chain D31 (HD31) (X₁), HK32 (X₂), HK54(X₃), HR100 (X₄), HY102 (X₅), HY103 (X₆) and HQ105 (X₇). The SDRs on VL are Light chain V32 (LV32) (X₈), LP94 (X₉) and LV95 (X₁₀). The SDRs were subsequently mutated by site-directed mutagenesis to other amino acids to generate mutant VH or VL clones. HEK293 cells were co-transfected with a vector encoding a mutant VH paired with a vector encoding a wild type VL or a vector encoding a wild type VH paired with a vector encoding a mutant VL. The antibody clones were harvested from the culture medium. The binding affinity of each antibody clone to human GM-CSF was tested by ELISA. The ELISA was done according to the following procedures. ELISA plate was coated with 50 μl of rhGM-CSF at 1 μg/mL. The plate was washed with 200 μl PBST for three times, followed by blocking with 1% BSA for 1 hour at room temperature. The antibody clones to be tested were diluted at 1:12000. 100 μl of the diluted antibodies were added to the cell at 100 μl/well. The plate was incubated at room temperature for 1 hour. The plate was then washed and incubated with 1:5000 diluted goat-anti-human secondary antibody conjugated with HRP at room temperature for one hour. The ELISA assay was developed with 100 μl developing buffer containing H₂O₂-Amplx Red per well in the dark for 5 min and the fluorescence intensity was read at Ex.530/Em.590 nm, with cutoff at 570 nm. The Unit Binding Activity (UBA) of each sample was calculated as the fluorescence signal/antibody clone dilution factor.

T1 sequence (P04141 18-144 limits assumed): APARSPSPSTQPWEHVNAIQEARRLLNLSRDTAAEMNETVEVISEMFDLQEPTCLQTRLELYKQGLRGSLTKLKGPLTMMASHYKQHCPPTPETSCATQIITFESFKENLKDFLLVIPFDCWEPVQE

B2: 1D2 SDR mutant HY102G (antibody, IgG1, V domains shown)
VH: QVQLVQSGAEVKKPGASVKVSCEASGYTFTDKYLHWVRQAPGQGLEWMAWINPKSGGTFYAQNFKGRVTVTRDTSINTAYLELTSLRLDDTSTYYCARGRDGYDQGAADLWGQGTMVTVSS
VL: DIQLTQSPSSLSASVGDRVTITCRASQGINSVLAWYQQKPGKAPKLLLYAASKLESGVPSRFSGSGSGTDYTLTISSLQPEDFGTYYCQQYYSPVRTFGQGTKVEIKR
notes: also called X5 G
binding affinity % of 1D2: 89%

B6: 1D2 SDR mutant HY102L (antibody, IgG1, V domains shown)
VH: B2 VH with G102L
VL: B2 VL
notes: also called X5 L
binding affinity % of 1D2: 86%

B7: 1D2 SDR mutant HR100A (antibody, IgG1, V domains shown)
VH: B2 VH with R100A, G102Y
VL: B2 VL
notes: also called X4 A
binding affinity % of 1D2: 76%

B8: 1D2 SDR mutant HR100Q (antibody, IgG1, V domains shown)
VH: B2 VH with R100Q, G102Y
VL: B2 VL
notes: also called X4 Q
binding affinity % of 1D2: 57%

B9: 1D2 SDR mutant HY102I (antibody, IgG1, V domains shown)
VH: B2 VH with G102I
VL: B2 VL
notes: also called X5 I
binding affinity % of 1D2: 64%

B10: 1D2 SDR mutant HQ105S (antibody, IgG1, V domains shown)
VH: B2 VH with G102Y, Q105S
VL: B2 VL
notes: also called X7 S
binding affinity % of 1D2: 134%

B11: 1D2 SDR mutant HR100I (antibody, IgG1, V domains shown)
VH: B2 VH with R100I, G102Y
VL: B2 VL
notes: also called X4 I
binding affinity % of 1D2: 80%

B12: 1D2 SDR mutant HY102N (antibody, IgG1, V domains shown)
VH: B2 VH with G102N
VL: B2 VL
notes: also called X5 N
binding affinity % of 1D2: 83%

B14: 1D2 SDR mutant HR100T (antibody, IgG1, V domains shown)
VH: B2 VH with R100T, G102Y
VL: B2 VL
notes: also called X4 T
binding affinity % of 1D2: 93%

B15: 1D2 SDR mutant HR100P (antibody, IgG1, V domains shown)
VH: B2 VH with R100P, G102Y
VL: B2 VL
notes: also called X4 P
binding affinity % of 1D2: 101%

B17: 1D2 SDR mutant HR100M (antibody, IgG1, V domains shown)
VH: B2 VH with R100M, G102Y
VL: B2 VL
notes: also called X4 M
binding affinity % of 1D2: 94%

B19: 1D2 SDR mutant HQ105E (antibody, IgG1, V domains shown)
VH: B2 VH with G102Y, Q105E
VL: B2 VL
notes: also called X7 E
binding affinity % of 1D2: 173%

B20: 1D2 SDR mutant HQ105M (antibody, IgG1, V domains shown)
VH: B2 VH with G102Y, Q105M
VL: B2 VL
notes: also called X7 M
binding affinity % of 1D2: 148%

B21: 1D2 SDR mutant HQ105V (antibody, IgG1, V domains shown)
VH: B2 VH with G102Y, Q105V
VL: B2 VL
notes: also called X7 V
binding affinity % of 1D2: 155%

B22: 1D2 SDR mutant HQ105W (antibody, IgG1, V domains shown)
VH: B2 VH with G102Y, Q105W
VL: B2 VL
notes: also called X7 W
binding affinity % of 1D2: 68%

B25: 1D2 SDR mutant HK54R (antibody, IgG1, V domains shown)
VH: B2 VH with K54R, G102Y
VL: B2 VL
notes: also called X3 R
binding affinity % of 1D2: 98%

B27: 1D2 SDR mutant HR100G (antibody, IgG1, V domains shown)
VH: B2 VH with R100G, G102Y
VL: B2 VL
notes: also called X4 G
binding affinity % of 1D2: 125%

B29: 1D2 SDR mutant HR100E (antibody, IgG1, V domains shown)
VH: B2 VH with R100E, G102Y
VL: B2 VL
notes: also called X4 E
binding affinity % of 1D2: 92%

B33: 1D2 SDR mutant HK54W (antibody, IgG1, V domains shown)
VH: B2 VH with K54W, G102Y
VL: B2 VL
notes: also called X3 W
binding affinity % of 1D2: 88%

Now from value to binder:

binding affinity % of 1D2: 93%
B1: 1D2 SDR mutant HK54Q (antibody, IgG1, V domains shown)
VH: B2 VH with K54Q, G102Y
VL: B2 VL
notes: also called X3 Q

binding affinity % of 1D2: 105%
B3: 1D2 SDR mutant HQ105G (antibody, IgG1, V domains shown)
VH: B2 VH with G102Y, Q105G
VL: B2 VL
notes: also called X7 G

binding affinity % of 1D2: 101%
B4: 1D2 SDR mutant HK54T (antibody, IgG1, V domains shown)
VH: B2 VH with K54T, G102Y
VL: B2 VL
notes: also called X3 T

binding affinity % of 1D2: 74%
B5: 1D2 SDR mutant HK54V (antibody, IgG1, V domains shown)
VH: B2 VH with K54V, G102Y
VL: B2 VL
notes: also called X3 V

binding affinity % of 1D2: 69%
B13: 1D2 SDR mutant HR100L (antibody, IgG1, V domains shown)
VH: B2 VH with R100L, G102Y
VL: B2 VL
notes: also called X4 L

binding affinity % of 1D2: 104%
B16: 1D2 SDR mutant HY102S (antibody, IgG1, V domains shown)
VH: B2 VH with G102S
VL: B2 VL
notes: also called X5 S

binding affinity % of 1D2: 133%
B18: 1D2 SDR mutant HQ105T (antibody, IgG1, V domains shown)
VH: B2 VH with G102Y, Q105T
VL: B2 VL
notes: also called X7 T

binding affinity % of 1D2: 82%
B23: 1D2 SDR mutant HK54S (antibody, IgG1, V domains shown)
VH: B2 VH with K54S, G102Y
VL: B2 VL
notes: also called X3 S

binding affinity % of 1D2: 68%
B24: 1D2 SDR mutant HY102A (antibody, IgG1, V domains shown)
VH: B2 VH with G102A
VL: B2 VL
notes: also called X5 A

binding affinity % of 1D2: 89%
B26: 1D2 SDR mutant HR100C (antibody, IgG1, V domains shown)
VH: B2 VH with R100C, G102Y
VL: B2 VL
notes: also called X4 C

binding affinity % of 1D2: 74%
B28: 1D2 SDR mutant HR100V (antibody, IgG1, V domains shown)
VH: B2 VH with R100V, G102Y
VL: B2 VL
notes: also called X4 V

binding affinity % of 1D2: 72%
B30: 1D2 SDR mutant HR100S (antibody, IgG1, V domains shown)
VH: B2 VH with R100S, G102Y
VL: B2 VL
notes: also called X4 S

binding affinity % of 1D2: 71%
B31: 1D2 SDR mutant HY102F (antibody, IgG1, V domains shown)
VH: B2 VH with G102F
VL: B2 VL
notes: also called X5 F

binding affinity % of 1D2: 63%
B32: 1D2 SDR mutant HQ105L (antibody, IgG1, V domains shown)
VH: B2 VH with G102Y, Q105L
VL: B2 VL
notes: also called X7 L
